According to article PMC1636418:
Positions count from the first letter of the chain named.

What was measured:
Test in all cases: EMSA
ZαβZBP1 = target: T1, ZαβZBP1 (Homo sapiens, UniProt Q9H171 4-167)
T1 sequence: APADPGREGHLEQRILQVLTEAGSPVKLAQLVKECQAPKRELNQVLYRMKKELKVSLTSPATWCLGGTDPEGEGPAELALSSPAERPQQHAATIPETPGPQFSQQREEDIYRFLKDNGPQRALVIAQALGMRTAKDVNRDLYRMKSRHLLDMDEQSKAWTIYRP

ZβZBP1 = target: T2, ZβZBP1 (Homo sapiens, UniProt Q9H171 4-10+87-167, internal_change)
T2 sequence: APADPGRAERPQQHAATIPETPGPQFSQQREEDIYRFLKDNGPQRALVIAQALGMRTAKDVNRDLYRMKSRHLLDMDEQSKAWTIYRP

ZαZBP1 = target: T3, ZαZBP1 (Homo sapiens, UniProt Q9H171 4-86)
T3 sequence: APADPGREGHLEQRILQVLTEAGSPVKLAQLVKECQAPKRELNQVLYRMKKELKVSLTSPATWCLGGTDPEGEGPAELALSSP

ZαβADAR1 = target: T4, ZαβADAR1 (Homo sapiens, UniProt P55265 133-368)
T4 sequence: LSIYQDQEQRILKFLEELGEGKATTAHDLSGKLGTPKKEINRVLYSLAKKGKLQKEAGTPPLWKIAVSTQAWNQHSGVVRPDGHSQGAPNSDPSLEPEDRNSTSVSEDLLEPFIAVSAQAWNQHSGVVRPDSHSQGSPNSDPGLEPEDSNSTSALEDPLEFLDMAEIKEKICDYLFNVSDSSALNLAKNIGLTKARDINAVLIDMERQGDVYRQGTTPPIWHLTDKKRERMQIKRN

[1] = target: T5, ZαβZBP1 N46D/Y50A/N141D/Y145A (Homo sapiens, UniProt Q9H171 4-167, N46D;Y50A;N141D;Y145A)
T5 sequence: T1 sequence with N43D, Y47A, N138D, Y142A

ZαβZBP1 N46D = target: T6, ZαβZBP1 N46D (Homo sapiens, UniProt Q9H171 4-167, N46D)
T6 sequence: T1 sequence with N43D

ZαβZBP1 Y50A = target: T7, ZαβZBP1 Y50A (Homo sapiens, UniProt Q9H171 4-167, Y50A)
T7 sequence: T1 sequence with Y47A

ZαβZBP1 N46D/Y50A = target: T8, ZαβZBP1 N46D/Y50A (Homo sapiens, UniProt Q9H171 4-167, N46D;Y50A)
T8 sequence: T1 sequence with N43D, Y47A

ZαβZBP1 N141D/Y145A = target: T9, ZαβZBP1 N141D/Y145A (Homo sapiens, UniProt Q9H171 4-167, N141D;Y145A)
T9 sequence: T1 sequence with N138D, Y142A

Measured: binding result

B1: (dC-dG)20 (dsDNA)
DNA 1: CGCGCGCGCGCGCGCGCGCGCGCGCGCGCGCGCGCGCGCG
DNA 2: B1 DNA 1
binds: ZαβZBP1 | ZβZBP1 | ZαZBP1 | ZαβADAR1
no binding: all other assays above
